This is an account of results in patent US6329500.

Some results are limits rather than exact numbers.

The target of assay [1] is transforming growth factor-β2 (TGF-β2). Briefly: 0.1 nM ^125 I-TGF-β2 in α2 M-MA-coated microtiter wells, 1 h.
Assay [2] concerns the target transforming growth factor-β1 (TGF-β1). The assay is described as follows: 0.1 nM ^125 I-TGF-β1 in α2 M-MA-coated microtiter wells, 1 h.
For assay [3] the target is unchanged. Briefly: solution-phase competitor of ^125 I-TGF-β1 binding to immobilized α2 M-MA.
In assay [4] the target is GST-α2 M peptide-fusion protein FP3 (human) (UniProt P01023). The assay is described as follows: ligand blot; ^125 I-TGF-β1 on PVDF-immobilized FP3 with 0.2 µM unlabeled TGF-β1.
The target of assay [5] is methylamine-modified human α2 -macroglobulin (α2 M-MA) (human) (UniProt P01023). The assay is described as follows: ^125 I-TGF-β1 in α2 M-MA-coated wells with 0.2 µM unlabeled TGF-β.
Assay [6] concerns the target GST-α2 M peptide-fusion protein FP3 (human) (UniProt P01023). Briefly: ligand blot; ^125 I-TGF-β2 on PVDF-immobilized FP3 with 0.2 µM unlabeled TGF-β2.
Assay [7] deals with methylamine-modified human α2 -macroglobulin (α2 M-MA) (human) (UniProt P01023). Briefly: ^125 I-TGF-β2 in α2 M-MA-coated wells with 0.2 µM unlabeled TGF-β.

For orientation: IC50 means the concentration that gives 50% inhibition.

Turning to “methylamine-modified human α2 -macroglobulin (α2 M-MA) (from UniProt P01023)”, the results for the amount of ^125 I-TGF-β bound in assay [1] and in assay [2] were 2.6 fmol and 3.4 fmol, respectively. Turning to “monomeric human α2 -macroglobulin (from UniProt P01023)”, in assay [3], the IC50 was found to be 360 nM.

The substance “transforming growth factor-β1 (TGF-β1) (ligand)” displayed a percent inhibition of binding in assay [4] of 72%. The substance further yielded a percent decrease of binding in assay [5] of more than 75%.

“transforming growth factor-β2 (TGF-β2) (ligand)” returned a percent inhibition of binding in assay [6] of 90%. This substance also had a percent decrease of binding in assay [7] of more than 75%.
